Results on one substance are retold here after WO2021160116A1.

In the test the target is human FcRn mut (L320A, L321A) co-transfected with human β2M, stably overexpressed on HEK293 cells (human) (UniProt P55899). Briefly: flow cytometry competition, Argx-113 against biotin-hIgG (100 μg/mL) on HEK293 cells overexpressing human FcRn mut, pH 6.0.

What is called IC50 is the concentration that inhibits the measured activity by half. High values mean weaker potency, low ones greater potency.

human FcRn mut (L320A, L321A) co-transfected with human β2M, stably overexpressed on HEK293 cells (human), sequence (P55899 24-365 L343A/L344A, chain 1 of 2): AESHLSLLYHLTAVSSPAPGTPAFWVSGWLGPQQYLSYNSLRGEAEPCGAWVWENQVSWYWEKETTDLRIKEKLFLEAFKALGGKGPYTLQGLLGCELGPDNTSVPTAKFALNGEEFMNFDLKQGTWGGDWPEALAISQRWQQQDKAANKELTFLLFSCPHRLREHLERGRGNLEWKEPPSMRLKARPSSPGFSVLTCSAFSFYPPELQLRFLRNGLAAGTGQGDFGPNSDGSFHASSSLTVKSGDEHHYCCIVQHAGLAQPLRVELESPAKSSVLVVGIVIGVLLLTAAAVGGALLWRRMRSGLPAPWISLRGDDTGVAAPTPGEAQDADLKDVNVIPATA
human FcRn mut (L320A, L321A) co-transfected with human β2M, stably overexpressed on HEK293 cells (human), sequence (P61769 21-119, chain 2 of 2, further chain): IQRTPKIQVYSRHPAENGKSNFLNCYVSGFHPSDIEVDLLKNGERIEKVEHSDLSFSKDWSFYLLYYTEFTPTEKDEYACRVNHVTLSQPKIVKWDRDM

Consider Argx-113, for which the 50% inhibitory concentration (IC50) was determined as 9.77 nM. That is a single-digit nanomolar value.
